# Literature values as cited in patent US20090004190A1, “Rage Fusion Proteins And Methods Of Use” (priority 2006, published 2009).
# Experiments:
# [1] = assessed by retention of immunoreactivity sRAGE
substance,measurement,setting,value
human sRAGE: human soluble RAGE (SEQ ID NO: 4),half-life,[1],less than 2 hours
same,half-life in plasma,,about 2 hours
